In PMC3623455:

Legend:
purified protein [1] = substrate: OC[C@@H](O)[C@H](O)[C@@H](O)CO; assay: purified protein; conditions: 100 mM Tris-HCl pH 8.0, 1 mM NADP+, polyol oxidation
purified protein [2] = substrate: O=C(CO)[C@H](O)[C@@H](O)CO; assay: purified protein; conditions: 50 mM Tris-HCl pH 7.0, 0.5 mM NADPH, sugar reduction

B1: LXR3 (Trichoderma reesei QM6a) (protein)
chain: KNGAFPHDNAAVPNVERVLPLFSLKGRTAIVSGAGAGIGLAVAQAFAEAGANVAIWYNSNKQAVTSAEDIAKTYGVKCKAYQVNVTSAEAVDKAITEIIKEFNGRLDVFVANSGITWTEGAFIDGSVESARNVMSVNVDGVMWCAKSAGAHFRRQKEEGTTIDGKPLDNFIAGSFIATASMSGSIVNVPQLQAVYNSSKAAVIHFCKSLAVEWTGFARVNTVSPGYIITEISNFVPPETKTLWKDKIVMGREGRVGELKGAYLYLASDASSYTTGLDMIVDGGYSLP
Purified protein [1]
  kcat: 1 s⁻¹
Purified protein [2]
  kcat: 11.4 s⁻¹
